Where “and” joins values, the source holds several entries; their conditions need not be identical. Identical values can stand only once. Square brackets hold non-standard residues; d marks the D form. Phe(3,4-Cl2) = N[C@@H](Cc1ccc(Cl)c(Cl)c1)C(=O)O; Phe(4-Br) = N[C@@H](Cc1ccc(Br)cc1)C(=O)O; Phe(4-Cl) = N[C@@H](Cc1ccc(Cl)cc1)C(=O)O; Phe(4-Me) = Cc1ccc(C[C@H](N)C(=O)O)cc1; hCha = N[C@@H](CCC1CCCCC1)C(=O)O; Cha = N[C@@H](CC1CCCCC1)C(=O)O
Tests used:
[1] = molecular target: E. coli β clamp (β subunit of DNA polymerase III, dnaN gene product), N-tagged (E. coli) (UniProt P0A988); assay: SPR competition against P1, ratio of IC50 values; written as printed, the two labels seem exchanged against Table 14 and paragraph 151
[2] = molecular target: E. coli β clamp (β subunit of DNA polymerase III, dnaN gene product), N-tagged (E. coli) (UniProt P0A988); assay: SPR competition against P1
[3] = molecular target: E. coli β clamp (β subunit of DNA polymerase III, dnaN gene product), N-tagged (E. coli) (UniProt P0A988); assay: ITC, peptide 400 µM into β ring 20 or 30 µM, 25° C
[4] = molecular target: E. coli β clamp (β subunit of DNA polymerase III, dnaN gene product), N-tagged (E. coli) (UniProt P0A988)
[5] = molecular target: E. coli β clamp (β subunit of DNA polymerase III, dnaN gene product) (E. coli) (UniProt P0A988); assay: SPR competition: peptide with β ring injected on immobilized P1
[6] = molecular target: E. coli β clamp (β subunit of DNA polymerase III, dnaN gene product), N-tagged (E. coli) (UniProt P0A988); assay: SPR competition (Biacore 3000): β ring 0.25 µM mixed with the challenger, injected on immobilised P1
[7] = molecular target: E. coli β clamp (β subunit of DNA polymerase III, dnaN gene product) (E. coli) (UniProt P0A988); assay: SPR competition, concentration of peptide that challenges 50% of the binding of β ring to P1
[8] = molecular target: E. coli β clamp (β subunit of DNA polymerase III, dnaN gene product), N-tagged (E. coli) (UniProt P0A988); assay: SPR competition on immobilised P1
[9] = molecular target: E. coli β clamp (β subunit of DNA polymerase III, dnaN gene product), N-tagged (E. coli) (UniProt P0A988); assay: SPR competition on immobilised P1; ΔG = -RT ln Ki
[10] = molecular target: T1, E. coli β clamp (β subunit of DNA polymerase III, dnaN gene product), N-tagged (E. coli, UniProt P0A988 1-366); assay: SPR competition on immobilised P1; ΔG = -RT ln Ki
T1 construct: The dnaN gene was cloned in pET15b and expressed in BL21 E. coli; also called β ring; β protein; not shown: N-terminal tag from the pET15b vector (N-tagged protein, enriched on Ni-NTA)

[11] = molecular target: T1, E. coli β clamp (β subunit of DNA …); assay: SPR competition on immobilised P1
[12] = molecular target: T1, E. coli β clamp (β subunit of DNA …); assay: cell-based or functional assay
[13] = molecular target: T2, E. coli β clamp (β subunit of DNA polymerase III, dnaN gene product) (E. coli, UniProt P0A988 1-366); assay: SPR competition; ΔG = -RT ln Ki
T2 construct: Homodimeric ring; N-tagged protein expressed in BL21 E. coli and purified on Ni-NTA and MonoQ; also called β ring; β protein; not shown: N-terminal tag from the pET15b plasmid

[14] = molecular target: T2, E. coli β clamp (β subunit of DNA …); assay: SPR competition: peptide with β ring injected on immobilized P1
[15] = molecular target: T2, E. coli β clamp (β subunit of DNA …); assay: as above; remark: listed apart in the source
[16] = molecular target: T2, E. coli β clamp (β subunit of DNA …); assay: as above; remark: listed apart in the source
[17] = molecular target: T3, E. coli β clamp (β subunit of DNA polymerase III, dnaN gene product) (E. coli, UniProt P0A988 1-366); assay: ITC, peptide 400 µM into β ring 30 µM, 25 °C
T3 construct: Expressed in BL21 E. coli from pET15b with an N-terminal tag; also called β ring; β protein; not shown: N-terminal tag from plasmid pET15b ('N-tagged protein', purified on Ni-NTA)

[18] = molecular target: T3, E. coli β clamp (β subunit of DNA …); assay: ITC, peptide 400 µM into β ring 30 µM, 25 °C, second experiment
[19] = molecular target: T3, E. coli β clamp (β subunit of DNA …); assay: SPR competition, β ring on immobilised P1

Sequence of E. coli β clamp (β subunit of DNA polymerase III, dnaN gene product), N-tagged (E. coli) (P0A988 whole entry): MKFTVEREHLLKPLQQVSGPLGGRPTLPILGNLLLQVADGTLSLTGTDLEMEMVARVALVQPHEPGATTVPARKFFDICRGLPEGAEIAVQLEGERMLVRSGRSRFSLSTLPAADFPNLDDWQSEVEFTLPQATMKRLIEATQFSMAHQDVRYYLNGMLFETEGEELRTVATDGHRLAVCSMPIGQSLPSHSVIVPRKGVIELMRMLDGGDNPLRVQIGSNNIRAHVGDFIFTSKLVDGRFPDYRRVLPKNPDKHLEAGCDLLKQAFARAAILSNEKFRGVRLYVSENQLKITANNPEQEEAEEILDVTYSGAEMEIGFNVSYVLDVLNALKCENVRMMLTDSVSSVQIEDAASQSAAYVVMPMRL
Sequence of E. coli β clamp (β subunit of DNA polymerase III, dnaN gene product) (E. coli) (P0A988 whole entry): as above
T1 sequence (P0A988 whole entry): as above

## P14-7 (Ac R Q Cha R L F) (peptide)
[1]
  affinity ratio against P7: 5 fold
[2]
  affinity ratio against P7: > 50 fold

## P11 (Ac-Q Cha DL pMeF) (peptide)
[3]
  Kd: 380 nM
[4]
  IC50, Pol IV based biochemical assay (inhibition of β dependent Pol IV elongation): 2000 nM

## P20, Ac-Q Cha DL Cha (peptide)
[5]
  IC50: 410 nM

## P4 (RQLVFL) (peptide; other documents disagree on this pair)
[6]
  IC50: 256000 nM

## P14-5 (Cin R Q Cha N L diClF) (peptide; other documents disagree on this pair)
[7]
  Ki: 3250 nM

## P16, Ac Q Cha D hLeu F (peptide)
[5]
  IC50: 230 nM

## P18, Ac Q Cha D hCha F (peptide)
[5]
  IC50: 720 nM

## P12 (Ac-Q Cha DL pClF) (peptide)
[3]
  Kd: 100 nM
[4]
  IC50, Pol IV based biochemical assay (inhibition of β dependent Pol IV elongation): 300 nM

## P13 (Ac-Q Cha DL pBrF) (peptide)
[3]
  Kd: 150 nM
[4]
  IC50, Pol IV based biochemical assay (inhibition of β dependent Pol IV elongation): 250 nM

## P23, Ac-QFDLF (peptide; other documents disagree on this pair)
[5]
  IC50: 31600 nM

## P17, Ac Q Cha D Cha F (peptide)
[5]
  IC50: 310 nM

## P19, Ac Q ChaD NptGly F (peptide)
[5]
  IC50: 5630 nM

## P22, Ac-Q Cha DL Atda (peptide)
[5]
  IC50: 3720 nM

## P2 (RQLVLL) (peptide; other documents disagree on this pair)
[8]
  fold decrease in interaction against P1: 2 fold and 3 fold
[6]
  IC50: 21500 nM
[9]
  ΔG: -6.54 kcal/mol

## P21, Ac-Q Cha DLW (peptide; other documents disagree on this pair)
[5]
  IC50: 640 nM

## P3 (RQLVLF) (peptide)
[4]
  IC50, Pol IV based biochemical assay (inhibition of β dependent Pol IV elongation): 7000 nM

## P14-8 (Ac R Q Cha K L F) (peptide; other documents disagree on this pair)
[1]
  affinity ratio against P7: 50 fold
[2]
  Ki: 1000 nM
  fold decrease in affinity against P14: 10 fold
[7]
  Ki: 904 nM

## Ac-QLDLF-OH (also called Ac-Gln-Leu-Asp-Leu-Phe-OH) [P6 (AcQLDLF), listing 1 of 2 here]
[10]
  ΔG: -8.22 kcal/mol
[11]
  times tighter binding than P1: ~8 fold
[12]
  IC50, Pol IV based biochemical assay (inhibition of β dependent Pol IV elongation): 4500 nM

## H-QLDLF-OH (also called QLDLF) [P5, H-Gln-Leu-Asp-Leu-Phe-OH]
[13]
  ΔG: -6.87 kcal/mol

## Ac-QLDLF-OH (also called AcQLDLF) [P6, Ac-Gln-Leu-Asp-Leu-Phe-OH]
[13]
  ΔG: -8.22 kcal/mol

B1: P8, Ac-Gln-hCha-Asp-Leu-Phe-OH (peptide)
peptide: Ac-Q[hCha]DLF-OH
SMILES: CC(=O)N[C@@H](CCC(N)=O)C(=O)N[C@@H](CCC1CCCCC1)C(=O)N[C@@H](CC(=O)O)C(=O)N[C@@H](CC(C)C)C(=O)N[C@@H](Cc1ccccc1)C(=O)O
notes: X stands for the non-natural residue; also called Ac Q hCha DLF
[14]
  IC50: 82800 nM
[15]
  IC50: 82800 nM
[13]
  ΔG: -5.74 kcal/mol

B2: P11, Ac-Gln-Cha-Asp-Leu-pMePhe-OH (peptide)
peptide: Ac-Q[Cha]DL[Phe(4-Me)]-OH
SMILES: CC(=O)N[C@@H](CCC(N)=O)C(=O)N[C@@H](CC1CCCCC1)C(=O)N[C@@H](CC(=O)O)C(=O)N[C@@H](CC(C)C)C(=O)N[C@@H](Cc1ccc(C)cc1)C(=O)O
notes: X stands for Cha; the substituted phenylalanine is written F; also called Ac-Q Cha DL pMeF
[14]
  IC50: 260 nM
[16]
  IC50: 260 nM
[13]
  ΔG: -9.44 kcal/mol

B3: P12, Ac-Gln-Cha-Asp-Leu-pClPhe-OH (peptide)
peptide: Ac-Q[Cha]DL[Phe(4-Cl)]-OH
SMILES: CC(=O)N[C@@H](CCC(N)=O)C(=O)N[C@@H](CC1CCCCC1)C(=O)N[C@@H](CC(=O)O)C(=O)N[C@@H](CC(C)C)C(=O)N[C@@H](Cc1ccc(Cl)cc1)C(=O)O
notes: X stands for Cha; the substituted phenylalanine is written F; also called Ac-Q Cha DL pClF
[14]
  IC50: 160 nM
[16]
  IC50: 160 nM
[13]
  ΔG: -9.73 kcal/mol

B4: P13, Ac-Gln-Cha-Asp-Leu-pBrPhe-OH (peptide)
peptide: Ac-Q[Cha]DL[Phe(4-Br)]-OH
SMILES: CC(=O)N[C@@H](CCC(N)=O)C(=O)N[C@@H](CC1CCCCC1)C(=O)N[C@@H](CC(=O)O)C(=O)N[C@@H](CC(C)C)C(=O)N[C@@H](Cc1ccc(Br)cc1)C(=O)O
notes: X stands for Cha; the substituted phenylalanine is written F; also called Ac-Q Cha DL pBrF
[14]
  IC50: 96 nM
[16]
  IC50: 100 nM
[13]
  ΔG: -9.71 kcal/mol

B5: P14, Ac-Gln-Cha-Asp-Leu-(3,4-di-Cl)Phe-OH (peptide)
peptide: Ac-Q[Cha]DL[Phe(3,4-Cl2)]-OH
SMILES: CC(=O)N[C@@H](CCC(N)=O)C(=O)N[C@@H](CC1CCCCC1)C(=O)N[C@@H](CC(=O)O)C(=O)N[C@@H](CC(C)C)C(=O)N[C@@H](Cc1ccc(Cl)c(Cl)c1)C(=O)O
notes: X stands for Cha; the substituted phenylalanine is written F; also called Ac-Q Cha DL diClF; Bu29
[14]
  IC50: 77 nM
[16]
  IC50: 72 nM
[13]
  ΔG: -9.85 kcal/mol

B6: P1, natural C-terminal heptapeptide of E. coli DNA polymerase IV (RQLVLGL) (peptide)
peptide: H-RQLVLGL-OH
notes: Free peptide in ITC; also called H-Arg-Gln-Leu-Val-Leu-Gly-Leu-OH
[17]
  Kd: 1580 nM
  ΔG: -7.9 kcal/mol
  ΔH: -4.09 kcal/mol
  ΔS: 12.8 cal/mol/deg
[18]
  Kd: 2010 nM
  ΔG: -7.7 kcal/mol
  ΔH: -5.5 kcal/mol
  ΔS: 7.6 cal/mol/deg
[19]
  IC50: 8850 nM

## Ac-QLDLF-OH (also called Ac-Gln-Leu-Asp-Leu-Phe-OH) [P6 (AcQLDLF), listing 2 of 2 here]
[17]
  Kd: 820 nM
  ΔH: -11.3 kcal/mol
  ΔS: -10.4 cal/mol/deg
[18]
  Kd: 613 nM
  ΔG: -8.3 kcal/mol
  ΔH: -11.1 kcal/mol
  ΔS: -9.08 cal/mol/deg

## QLDLF [P5 (QLDLF)]
[10]
  ΔG: -6.87 kcal/mol

B7: E. coli DNA polymerase IV (enzyme)
chain: MRKIIHVDMDCFFAAVEMRDNPALRDIPIAIGGSRERRGVISTANYPARKFGVRSAMPTGMALKLCPHLTLLPGRFDAYKEASNHIREIFSRYTSRIEPLSLDEAYLDVTDSVHCHGSATLIAQEIRQTIFNELQLTASAGVAPVKFLAKIASDMNKPNGQFVITPAEVPAFLQTLPLAKIPGVGKVSAAKLEAMGLRTCGDVQKCDLVMLLKRFGKFGRILWERSQGIDERDVNSERLRKSVGVERTMAEDIHHWSECEAIIERLYPELERRLAKVKPDLLIARQGVKLKFDDFQQTTQEHVWPRLNKADLIATARKTWDERRGGRGVRLVGLHVTLLDPQMERQLVLGL
notes: Called the whole polymerase / the full PolIV enzyme; construct and tags not described; also called PolIV; Pol IV
[10]
  ΔG: -9.09 kcal/mol

B8: E. coli DNA polymerase IV (enzyme)
chain: B7 chain
notes: also called PolIV; Pol IV
[13]
  ΔG: -9.09 kcal/mol

B9: P1, H-Arg-Gln-Leu-Val-Leu-Gly-Leu-OH (peptide)
peptide: H-RQLVLGL-OH
notes: also called RQLVLGL; natural Cter heptamer of E. coli DNA polymerase IV
[14]
  IC50: 8850 nM
[13]
  ΔG: -7.06 kcal/mol
